Assay results from patent publication US7850981B2, “Immuno-adjuvant PDT treatment of metastatic tumors” (QLT, Inc., priority 1999, dated 2010).
Like-named read-outs stand apart in the source and are kept apart here.

How the values were obtained:
DC [1] = settings: after multiple injections, cited from earlier work
DC [2] = assay: Preliminary experiments: daily injection of FLT3 L into mice, numbers of DC; format: in vivo; settings: daily injection of 10 μg into mice for 10 days

B1: FLT3-ligand: cytokine factor promoting growth of hematopoietic progenitors; increases dendritic cell numbers (protein, UniProt P49771 27-235, looked up)
Fms-related tyrosine kinase 3 …: TQDCSFQHSPISSDFAVKIRELSDYLLQDYPVTVASNLQDEELCGGLWRLVLAQRWMERLKTVAGSKMQGLLERVNTEIHFVTKCAFQPPPSCLRFVQTNISRLLQETSEQLVALKPWITRQNFSRCLELQCQPDSSTLPPPWSPRPLEATAPTAPQPPLLLLLLLPVGLLLLAAAWCLHWQRTRRRTPRPGEQVPPVPSPQDLLLVEH
In the case of B1, the “increase in DC numbers” value (DC [1]; blood) is given as ~6 fold, the “increase in DC numbers” value (DC [1]; peripheral lymph nodes) is given as ~4 fold and the “increase in DC numbers” value (DC [1]; spleen) is given as “approximately 17 fold”. The “numbers of DC” value (DC [2]) was “dramatically increase”.
